# Test results published in US8709741B2, “Methods of diagnosing a plasmodium infection” (priority 2009, dated 2014).
# B1: X: recombinant human group X secreted phospholipase A2 (protein, UniProt O15496 43-165, looked up)
# Group 10 secretory …: GILELAGTVGCVGPRTPIAYMKYGCFCGLGGHGQPRDAIDWCCHGHDCCYTRAEEAGCSPKTERYSWQCVNQSVLCGPAENKCQELLCKCDQEIANCLAQTEYNLKYLFYPQFLCEPDSPKCD
# Experiments:
# [1] = Enzymatic hydrolysis of purified lipoproteins (NEFA); assay type: biochemical, human; conditions: 15 h at 37° C., each sPLA2 at approximately 10×IC50
# Protocol: CM/VLDL, LDL and HDL were purified from human plasma and used either fresh (F) or after minimal oxidization by air and light (Ox). After phospholipid content determination, plasma, LDL and HDL were adjusted to 1.6 mg PL/mL final concentration in PBS calcium. Because low amount was available, the CM/VLDL fraction was adjusted to 1.0 mg PL/mL. Each sample was incubated for 15 hours at 37° C., alone or in the presence of recombinant human GX sPLA2 (hGX PLA2; 25 nM), recombinant human GIIF sPLA2 (hGIIF PLA2; 125 nM), bee venom sPLA2 (bvPLA2; 0.18 nM) and Naja mossambica mossambica venom sPLA2 (Naja PLA2; 0.05 nM). NEFAs were quantified using the NEFA-C kit (WAKO). Values are the mean±SD of triplicate measurements. They were normalized by subtracting NEFA amount in the absence of enzyme. Two independent experiments with lipoproteins from different plasmas were performed, which gave similar qualitative results. Results from one experiment are shown;
# Plasma and purified LDL and HDL were adjusted to 1.67 mg phospholipid (PL)/mL final concentration in PBS. Because purification yielded low amount of CM/VLDL, the CM/VLDL fraction was adjusted to 1.00 mg PL/mL. CaCl2 (1 mM final) was added to the lipoprotein fractions. 200 μL of each fraction were deposited in a 96-well plate and incubated for 15 hours at 37° C., alone or in the presence of recombinant human GX sPLA2 (hGX PLA2, 25.0 nM), recombinant human GIIF sPLA2 (hGIIF PLA2, 125.0 nM), bee venom sPLA2 (bvPLA2, 0.18 nM) and Naja mossambica mossambica venom sPLA2 (Naja PLA2, 0.05 nM). NEFAs were measured in triplicate using the NEFA-C kit (WAKO). Value from each fraction was normalized by subtracting the NEFA amount in the corresponding fraction without enzyme. Two independent experiments with lipoproteins from different plasmas were performed, which gave similar qualitative results. According to the experiment, maximum hydrolysis reached 50% or 65% of total PLs in the fraction. […]
# [2] = test system: P. falciparum-infected erythrocytes; test: GX sPLA2 lipolysis of infected red blood cells, young and mature stages (NEFA); assay type: cell-based, human; conditions: no serum, 5 h at 37° C.
# Protocol: A semi-synchronous culture of P. falciparum (2.5% parasitaemia) was analysed for sensitivity to GX sPLA2 at early and late development stages. Parasitaemia and stage distribution were determined from Diff-Quick-stained smears. Early stages were processed at t 0 h and late stages were processed 24 h later (t 24 h). Cultures were washed and cells were re-suspended at 50% haematocrit in RPMI 0.05% BSA, and then distributed into wells of a 96-well microplate in the presence or absence of respectively 30.0 nM of GX sPLA2 and 0.2 nM of bee venom sPLA2. Non-infected erythrocytes and human serum were processed similarly, after all samples had been adjusted for same phosphatidylcholine (PC) content. […] NEFAs in each sample were measured in triplicate using the NEFA-C kit (WAKO). […]
# A parasite culture was enriched in young parasite stages (rings+early trophozoites) by sorbitol treatment. Parasitaemia (2.5-3%) and stage distribution were determined from Diff-Quick staining of culture smears. […] NEFAs in erythrocyte samples are expressed as the sum of NEFAs from ghosts and corresponding supernatant.
# The membranolytic activity of the recombinant GX sPLA2 on RBCs infected by either young (ring/young trophozoite) or mature (late trophozoite/schizont) parasites was analysed. […] Parasite cultures were incubated with GX sPLA2 in the absence of serum for 5 h and NEFA production was measured thereafter. […]
molecule,measurement,setting,value
B1,preferential order of lipoprotein hydrolysis,[1],HDL>LDL>CM/VLDL
same,membranolytic activity on healthy (non-infected) erythrocytes,[2]; 30 nM,left intact
same,"membranolytic activity on parasite culture erythrocytes (NEFA release, words)","[2]; GX 30 nM, bee venom 0.2 nM",induced the release of NEFAs from the parasite culture with predominance for the schizont stages
